Some targets named below: GSK3β (h) (human (h), UniProt P49841 1-420); Pim-1 (h) (human (h), UniProt P11309 1-313); Lck (h) (human (h), UniProt P06239 1-509); PKB β (h) (human (h), UniProt P31751 1-481, limits assumed); PKCδ (h) (human (h), UniProt Q05655 1-676); Syk (h) (human (h), UniProt P43405 1-635); FGFR1 (h) (human (h), UniProt P11362 456-765, limits assumed); Src(1-530) (h) (human (h), UniProt P12931 1-530).

Holding throughout (assay): cell-based or functional assay
The target in the next experiment is T1, CHK1 (h) (human (h), UniProt O14757 1-476).
T1 sequence (looked up): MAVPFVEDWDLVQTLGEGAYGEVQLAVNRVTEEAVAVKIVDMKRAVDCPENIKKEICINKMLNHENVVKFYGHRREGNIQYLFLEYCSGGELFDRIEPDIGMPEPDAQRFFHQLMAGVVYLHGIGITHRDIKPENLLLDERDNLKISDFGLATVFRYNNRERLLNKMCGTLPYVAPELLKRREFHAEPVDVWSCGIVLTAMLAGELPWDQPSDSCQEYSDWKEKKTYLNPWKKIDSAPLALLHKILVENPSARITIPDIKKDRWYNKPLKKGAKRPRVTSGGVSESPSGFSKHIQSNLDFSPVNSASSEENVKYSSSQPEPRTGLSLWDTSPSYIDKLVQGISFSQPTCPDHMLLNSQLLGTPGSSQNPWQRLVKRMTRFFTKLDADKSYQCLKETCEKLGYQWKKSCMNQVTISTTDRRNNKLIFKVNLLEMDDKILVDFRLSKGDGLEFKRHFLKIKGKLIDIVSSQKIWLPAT

A further experiment has as its target T2, DYRK2 (h) (human (h), UniProt Q92630 1-601, limits assumed).
T2 sequence (looked up): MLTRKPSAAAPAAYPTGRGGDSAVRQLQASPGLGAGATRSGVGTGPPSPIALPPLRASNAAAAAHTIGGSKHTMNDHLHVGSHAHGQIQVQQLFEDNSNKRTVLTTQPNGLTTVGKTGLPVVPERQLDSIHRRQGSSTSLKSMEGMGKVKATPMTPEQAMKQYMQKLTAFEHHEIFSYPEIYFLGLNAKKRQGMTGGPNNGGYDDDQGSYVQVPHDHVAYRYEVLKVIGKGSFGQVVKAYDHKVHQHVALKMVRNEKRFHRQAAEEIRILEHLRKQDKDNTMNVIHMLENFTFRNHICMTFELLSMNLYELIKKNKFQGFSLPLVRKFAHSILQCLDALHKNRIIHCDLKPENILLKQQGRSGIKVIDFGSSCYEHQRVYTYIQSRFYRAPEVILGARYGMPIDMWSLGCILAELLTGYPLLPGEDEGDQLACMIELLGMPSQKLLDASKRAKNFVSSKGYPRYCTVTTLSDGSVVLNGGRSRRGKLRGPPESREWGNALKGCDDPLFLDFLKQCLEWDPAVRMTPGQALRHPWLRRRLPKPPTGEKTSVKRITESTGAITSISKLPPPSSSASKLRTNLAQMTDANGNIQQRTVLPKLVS

In the next experiment the target is T3, Flt3 (h) (human (h), UniProt P36888 564-993, limits assumed).
T3 sequence (looked up): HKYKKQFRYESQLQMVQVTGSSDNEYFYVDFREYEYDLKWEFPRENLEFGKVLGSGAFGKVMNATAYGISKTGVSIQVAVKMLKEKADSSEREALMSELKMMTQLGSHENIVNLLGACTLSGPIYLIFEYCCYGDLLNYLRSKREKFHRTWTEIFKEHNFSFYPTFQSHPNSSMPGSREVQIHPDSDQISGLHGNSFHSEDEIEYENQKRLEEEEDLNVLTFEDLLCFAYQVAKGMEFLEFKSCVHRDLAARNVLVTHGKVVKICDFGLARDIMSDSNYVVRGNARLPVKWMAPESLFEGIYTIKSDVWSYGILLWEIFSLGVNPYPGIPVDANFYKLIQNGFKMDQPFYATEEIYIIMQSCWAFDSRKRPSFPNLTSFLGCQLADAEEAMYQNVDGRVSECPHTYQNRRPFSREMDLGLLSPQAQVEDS

The next experiment has as its target T4, PhKγ2 (h) (human (h), UniProt P15735 1-406).
T4 sequence (looked up): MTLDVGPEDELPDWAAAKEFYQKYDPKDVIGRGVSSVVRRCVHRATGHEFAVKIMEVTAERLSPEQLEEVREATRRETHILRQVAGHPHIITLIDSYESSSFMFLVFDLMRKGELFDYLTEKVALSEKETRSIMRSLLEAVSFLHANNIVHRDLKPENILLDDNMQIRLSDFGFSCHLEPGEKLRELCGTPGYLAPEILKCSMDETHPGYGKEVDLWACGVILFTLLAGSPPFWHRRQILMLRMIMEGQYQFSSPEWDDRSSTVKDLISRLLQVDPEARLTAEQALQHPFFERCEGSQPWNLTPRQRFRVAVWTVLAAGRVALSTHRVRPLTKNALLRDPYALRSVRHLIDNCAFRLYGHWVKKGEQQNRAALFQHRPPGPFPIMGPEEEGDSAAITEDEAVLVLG

Sequence of PKB β (h) (P31751 whole entry): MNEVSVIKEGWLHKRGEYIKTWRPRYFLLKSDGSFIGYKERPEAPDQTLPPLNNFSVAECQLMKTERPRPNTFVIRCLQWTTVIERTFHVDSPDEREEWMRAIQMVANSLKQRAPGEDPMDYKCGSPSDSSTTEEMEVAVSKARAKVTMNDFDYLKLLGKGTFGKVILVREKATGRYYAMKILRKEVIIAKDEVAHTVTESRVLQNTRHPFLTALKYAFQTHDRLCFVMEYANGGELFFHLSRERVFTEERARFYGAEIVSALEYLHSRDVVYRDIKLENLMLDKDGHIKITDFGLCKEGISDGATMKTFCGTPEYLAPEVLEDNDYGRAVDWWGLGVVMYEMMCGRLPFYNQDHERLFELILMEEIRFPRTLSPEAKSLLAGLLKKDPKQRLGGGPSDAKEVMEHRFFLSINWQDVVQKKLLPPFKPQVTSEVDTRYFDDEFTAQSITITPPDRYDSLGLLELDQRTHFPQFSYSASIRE
Sequence of PKCδ (h) (Q05655 whole entry, stated change not applied): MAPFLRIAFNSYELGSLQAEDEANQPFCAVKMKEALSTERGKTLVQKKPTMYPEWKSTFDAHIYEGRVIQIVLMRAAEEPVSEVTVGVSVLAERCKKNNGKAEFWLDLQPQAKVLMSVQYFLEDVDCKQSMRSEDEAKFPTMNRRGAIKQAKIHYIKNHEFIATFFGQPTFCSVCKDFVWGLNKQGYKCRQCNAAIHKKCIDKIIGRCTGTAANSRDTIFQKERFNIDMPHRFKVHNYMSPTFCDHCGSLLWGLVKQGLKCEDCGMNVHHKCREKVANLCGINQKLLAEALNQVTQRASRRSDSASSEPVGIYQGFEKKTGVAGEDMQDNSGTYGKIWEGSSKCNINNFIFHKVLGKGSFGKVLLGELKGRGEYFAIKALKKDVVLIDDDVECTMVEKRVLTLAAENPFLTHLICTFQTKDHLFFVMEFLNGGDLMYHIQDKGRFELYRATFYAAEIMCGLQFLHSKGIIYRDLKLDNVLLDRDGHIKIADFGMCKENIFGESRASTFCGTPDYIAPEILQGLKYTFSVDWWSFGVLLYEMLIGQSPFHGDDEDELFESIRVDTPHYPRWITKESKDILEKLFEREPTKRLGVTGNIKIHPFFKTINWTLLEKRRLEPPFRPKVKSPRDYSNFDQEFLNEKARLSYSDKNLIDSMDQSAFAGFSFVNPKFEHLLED
Sequence of Lck (h) (P06239 whole entry): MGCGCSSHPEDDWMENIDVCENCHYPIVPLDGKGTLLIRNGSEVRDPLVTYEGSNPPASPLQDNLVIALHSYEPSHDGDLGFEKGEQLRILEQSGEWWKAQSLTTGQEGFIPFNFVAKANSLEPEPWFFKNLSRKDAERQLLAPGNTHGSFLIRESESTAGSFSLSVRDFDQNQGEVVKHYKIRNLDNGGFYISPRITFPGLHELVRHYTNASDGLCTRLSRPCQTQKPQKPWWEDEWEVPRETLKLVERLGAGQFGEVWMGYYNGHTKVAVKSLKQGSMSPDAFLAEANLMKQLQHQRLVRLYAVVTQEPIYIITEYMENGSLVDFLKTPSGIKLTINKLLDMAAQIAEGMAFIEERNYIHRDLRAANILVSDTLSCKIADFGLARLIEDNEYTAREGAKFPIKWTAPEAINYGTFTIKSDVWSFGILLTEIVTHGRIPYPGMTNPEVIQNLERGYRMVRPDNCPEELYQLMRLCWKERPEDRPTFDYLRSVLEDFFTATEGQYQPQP
Sequence of GSK3β (h) (P49841 whole entry): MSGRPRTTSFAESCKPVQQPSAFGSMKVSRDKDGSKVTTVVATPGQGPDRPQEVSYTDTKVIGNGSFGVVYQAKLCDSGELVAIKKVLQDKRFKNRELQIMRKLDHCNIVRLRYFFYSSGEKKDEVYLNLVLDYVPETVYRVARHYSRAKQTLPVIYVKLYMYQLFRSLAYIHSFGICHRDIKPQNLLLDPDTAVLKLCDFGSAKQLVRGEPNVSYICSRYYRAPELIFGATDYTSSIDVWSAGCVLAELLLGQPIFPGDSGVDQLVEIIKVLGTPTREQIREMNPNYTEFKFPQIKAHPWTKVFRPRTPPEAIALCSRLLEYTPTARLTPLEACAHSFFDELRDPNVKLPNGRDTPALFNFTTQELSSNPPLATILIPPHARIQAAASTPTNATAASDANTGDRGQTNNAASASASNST
Sequence of FGFR1 (h) (P11362 456-765 limits assumed): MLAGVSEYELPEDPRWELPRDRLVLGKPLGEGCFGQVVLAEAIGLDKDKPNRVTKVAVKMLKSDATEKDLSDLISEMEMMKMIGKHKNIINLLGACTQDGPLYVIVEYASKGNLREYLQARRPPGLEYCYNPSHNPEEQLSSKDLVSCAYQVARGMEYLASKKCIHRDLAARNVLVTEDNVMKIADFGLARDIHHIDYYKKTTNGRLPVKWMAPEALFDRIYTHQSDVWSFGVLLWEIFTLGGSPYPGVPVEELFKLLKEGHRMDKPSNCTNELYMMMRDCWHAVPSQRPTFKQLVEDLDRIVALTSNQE
Sequence of Pim-1 (h) (P11309 whole entry): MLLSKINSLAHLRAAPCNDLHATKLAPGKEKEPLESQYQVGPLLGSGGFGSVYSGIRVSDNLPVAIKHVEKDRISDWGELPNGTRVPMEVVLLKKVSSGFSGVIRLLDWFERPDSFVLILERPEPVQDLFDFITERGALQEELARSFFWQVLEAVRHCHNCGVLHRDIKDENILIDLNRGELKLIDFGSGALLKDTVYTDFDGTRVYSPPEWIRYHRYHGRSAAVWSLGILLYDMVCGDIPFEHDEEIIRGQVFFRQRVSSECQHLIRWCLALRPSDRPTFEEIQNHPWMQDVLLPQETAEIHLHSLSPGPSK

B1: WLRRIKAWLRRIKALNRQLGVAA (peptide)
peptide: WLRRIKAWLRRIKALNRQLGVAA
Turning to B1, the “Profile-1 @ = 30 µm (kinase profiler assay)” value is 31 with CHK1 (h); 129 in the experiment with GSK3β (h); 5 with Pim-1 (h); 130 with Lck (h); 18 with PKB β (h); 11 with PKCδ (h). For the same molecule, the “Profile-1 @ = 30 µm (kinase profiler assay)” value came to 93 in the experiment with DYRK2 (h); 38 in the experiment with Flt3 (h); 19 with Syk (h); 15 with PhKγ2 (h); 27 in the experiment with FGFR1 (h); 6 in the experiment with Src(1-530) (h).

(Values after patent publication US20090149389A1 (PURDUE RESEARCH FOUNDATION, published 2009).)
